No end group written: not given here.

The target in experiment [1] is cell surface receptors for collagen on human dermal fibroblasts. Nature of the experiment: attachment of fibroblasts to collagen-coated dishes, peptide in the medium at 35 × 10^-6 M; competitor collagen.
Experiment [2] shares this target. The experiment is described as follows: cell-binding activity relative to the inventive peptide of Examples 1 and 2.
Experiment [3] has the same target. The experiment is described as follows: cell-binding activity relative to the SEQ ID NO:1 peptide.
Experiment [4] shares this target. The experiment is described as follows: fibroblast attachment to coated coverslips, 15 min.
Experiment [5] shares this target. Nature of the experiment: various other similar cell attachment studies on glass or polystyrene.
Experiment [6] has the same target. Nature of the experiment: fibroblast attachment to coated coverslips, 15 min; reference collagen.
The target is the same in experiment [7]. Nature of the experiment: attachment of fibroblasts to collagen-coated dishes, peptide in the medium at 36 × 10^-6 M; competitor collagen.
Experiment [8] has the same target. The experiment is described as follows: attachment of fibroblasts to collagen-coated dishes, peptide in the medium at 7.2 × 10^-6 M; competitor collagen.
Experiment [9] shares this target. Nature of the experiment: about 100,000 human fetal dermal fibroblasts on coated glass coverslips, 15 min, attached cells counted; uncoated control 7.01.
For experiment [10] the target is unchanged. Nature of the experiment: attachment of fibroblasts to collagen-coated dishes, polyproline in the medium at 1.7 × 10^-6 M; competitor collagen.
Experiment [11] shares this target. Nature of the experiment: biological (cell-binding) activity relative to P-15; assay not described there.

For “Dynorphin 1-13 (from UniProt P01213 207-219) (peptide)”, in experiment [1], the % Inhibition of Cell Attachment stood at 19% and the % of Maximal Cell Attachment was determined as 81%.

As to FGIAGF (SEQ ID NO:5), the Relative Cell-Binding Activity (% relative to the SEQ ID NO:1 peptide) in experiment [2] worked out at 87.

In experiment [2], GPQGIAGQR (SEQ ID NO:2) showed a Relative Cell-Binding Activity (% relative to the SEQ ID NO:1 peptide) of 100.

For “Gln-Gly-Ile-Ala-Gly (SEQ ID NO:8) (peptide)”, in [3], the cell-binding activity relative to the SEQ ID NO:1 peptide is 42%.

In [2], “Gly-Ile-Ala-Gly-Gln (SEQ ID NO:6) (peptide)” registered a Relative Cell-Binding Activity (% relative to the SEQ ID NO:1 peptide) of 70.

“Inventive peptide Gly-Thr-Pro-Gly-Pro-Gln-Gly-Ile-Ala-Gly-Gln-Arg-Gly-Val-Val (SEQ ID NO:1)” registered an increase in cell binding over the control (no collagen or peptide) in experiment [4] of 60%. The substance also came in with a potency in binding cells relative to collagen (fold over collagen) in experiment [5] of 2. This substance also had an increase in cell binding over collagen-coated dishes in experiment [6] of 40%. Further, in experiment [7], the % Inhibition of Cell Attachment is 88% and the % of Maximal Cell Attachment came out at 12%. In [8], the % Inhibition of Cell Attachment was 85% and the % of Maximal Cell Attachment turned out to be 15%. In addition, the Concentration of Cells (relative binding of cells after 15 minutes) in experiment [9] turned out to be 11.1.

In experiment [10], Polyproline (peptide) gave a % Inhibition of Cell Attachment of 10% and a % of Maximal Cell Attachment of 90%.

Take QGAIAQ (SEQ ID NO:7): in [2], the Relative Cell-Binding Activity (% relative to the SEQ ID NO:1 peptide) stood at 70.

In the case of QGIAGQ (SEQ ID NO:3), the Relative Cell-Binding Activity (% relative to the SEQ ID NO:1 peptide) in experiment [2] came to 120.

In experiment [2], QGIAGQR (SEQ ID NO:4) displayed a Relative Cell-Binding Activity (% relative to the SEQ ID NO:1 peptide) of 60.

For “Rat tail tendon collagen (rat tail type I collagen) (from UniProt P02454 152-1207; P02466 86-1125)”, in [9], the Concentration of Cells (relative binding of cells after 15 minutes) was found to be 8.59.

Substance dipeptide -Ile-Ala- came in with a biological activity relative to P-15 in experiment [11] of 60%.

In [1], “human preangiotensinogen 1-14 (from UniProt P01019 25-38) (peptide)” showed a % Inhibition of Cell Attachment of 12% and a % of Maximal Cell Attachment of 88%.

These data come from patent US20020037853A1.
